# Experimental data from patent US20170304405A1.
# What was measured:
# Assay in all cases: cell-based or functional assay
# [1] = molecular target: GHRH receptor (GHRH-R) (human) (UniProt Q02643)
# [2] = molecular target: somatostatin receptor 2 (SSTR2) (human) (UniProt P30874)
# [3] = molecular target: GPR101 (human) (UniProt Q96P66)
# [4] = molecular target: somatostatin receptors (multi-somatostatin receptor)
# Sequence of UniProt Q02643 (Q02643 23-423): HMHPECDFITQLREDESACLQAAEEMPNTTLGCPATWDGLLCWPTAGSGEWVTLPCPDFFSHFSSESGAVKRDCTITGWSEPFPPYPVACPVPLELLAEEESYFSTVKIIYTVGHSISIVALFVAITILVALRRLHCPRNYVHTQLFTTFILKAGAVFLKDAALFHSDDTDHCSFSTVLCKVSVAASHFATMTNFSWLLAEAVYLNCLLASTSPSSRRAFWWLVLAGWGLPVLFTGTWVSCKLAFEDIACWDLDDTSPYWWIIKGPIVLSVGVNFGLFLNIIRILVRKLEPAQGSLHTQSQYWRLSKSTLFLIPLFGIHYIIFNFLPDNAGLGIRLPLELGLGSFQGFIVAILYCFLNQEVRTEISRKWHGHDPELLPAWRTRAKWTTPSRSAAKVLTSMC
# Sequence of UniProt Q96P66 (Q96P66 whole entry): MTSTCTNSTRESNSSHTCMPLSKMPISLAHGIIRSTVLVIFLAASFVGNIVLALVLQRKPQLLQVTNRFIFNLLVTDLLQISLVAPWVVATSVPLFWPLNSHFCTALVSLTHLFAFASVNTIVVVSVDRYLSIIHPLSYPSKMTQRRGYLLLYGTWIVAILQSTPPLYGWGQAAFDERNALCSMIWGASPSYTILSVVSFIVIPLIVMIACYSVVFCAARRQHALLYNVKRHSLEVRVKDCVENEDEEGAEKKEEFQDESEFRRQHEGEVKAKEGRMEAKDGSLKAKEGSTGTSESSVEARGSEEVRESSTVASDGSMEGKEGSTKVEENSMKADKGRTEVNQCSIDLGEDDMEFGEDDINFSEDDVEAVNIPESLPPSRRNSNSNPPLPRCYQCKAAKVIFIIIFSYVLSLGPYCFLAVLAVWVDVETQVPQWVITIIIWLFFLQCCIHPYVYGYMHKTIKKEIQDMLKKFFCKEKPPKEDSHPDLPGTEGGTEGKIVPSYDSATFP
# Sequence of UniProt P30874 (P30874 whole entry): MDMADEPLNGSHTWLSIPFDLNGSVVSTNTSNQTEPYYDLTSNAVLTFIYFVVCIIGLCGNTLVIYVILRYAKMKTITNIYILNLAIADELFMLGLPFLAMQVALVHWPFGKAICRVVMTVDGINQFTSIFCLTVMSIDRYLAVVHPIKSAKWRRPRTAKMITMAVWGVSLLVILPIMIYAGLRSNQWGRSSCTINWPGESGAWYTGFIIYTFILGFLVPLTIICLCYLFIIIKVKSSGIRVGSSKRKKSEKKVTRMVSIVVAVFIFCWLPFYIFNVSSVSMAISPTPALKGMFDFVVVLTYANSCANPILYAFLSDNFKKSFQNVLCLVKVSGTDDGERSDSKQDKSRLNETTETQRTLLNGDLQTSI
substance,measurement,setting,value
GH releasing hormone (GHRH) (from UniProt P01286 32-75) (ligand),"GH secretion by primary X-LAG pituitary tumour cells, % change vs control wells, GHRH at 10^-10 M",[1],410%
same,"Prolactin secretion by primary X-LAG pituitary tumour cells, % change vs control wells, GHRH at 10^-8 M",[1],11%
octreotide (peptide),"Prolactin secretion by primary X-LAG pituitary tumour cells, % change vs control, octreotide at 10^-9 M",[2],-26%
GnRH1-5 (from UniProt P01148 24-28) (peptide),"GH secretion by primary X-LAG pituitary tumour cells, % change vs control, GnRH1-5 at 10^-10 M",[3],15%
pasireotide (peptide),"GH secretion by primary X-LAG pituitary tumour cells, % change vs control, maximum inhibition at 10^-8 M",[4],-18%
